Experimental data from paper PMC5736309.

Target: Y1F Rpb1 (Rpb1 with a CTD of 26 FSPTSPS repeats) (S. cerevisiae)
Experiment: co-IP

B1: 3HA-tagged Nrd1 (natural protein)
chain: MQQDDDFQNFVATLESFKDLKSGISGSRIKKLTTYALDHIDIESKIISLIIDYSRLCPDSHKLGSLYIIDSIGRAYLDETRSNSNSSSNKPGTCAHAINTLGEVIQELLSDAIAKSNQDHKEKIRMLLDIWDRSGLFQKSYLNAIRSKCFAMDISNNTANTASQQLSLDPKQRSKQILSNLKKSPPLNLNISLPTDLTSTDPAKQQAALFQVIAALQKHFKTLPSHTSVGTVAPPQAHTITEYGSRRERERERERYNSRRNRSRSPPAPFSQPSTGRKDRYPSVAQDQYSIGAPNTTFGTNNHHLYPDELNVSNNPHYRPKPVSYDSTLPPDHIKVYSRTLFIGGVPLNMKEWDLANVLKPFAEVQSVILNNSRKHAFVKVYSRHEAENVLQNFNKDGALPLRTRWGVGFGPRDCCDYQHGYSIIPMHRLTDADKKWSVSAQWGGTSGQPLVTGIVFEEPDIIVGEGVSSKAISQKMPTDSGRNGPRSGKPNKSGSISSISPVPYGNAPLASPPPQQYVQPMMQQPYGYAPNQPLPSQGPAAAAPPVPQQQFDPTAQLNSLMNMLNQQQQQQQQS
  fold change in binding against WT Rpb1: 7.3 fold
